{
  "source": "the supplement of paper PMC5998384",
  "key": {"[1]": {"system": "HeLa Kyoto", "assay": "solubility in G1/S (NP-40 vs SDS abundance) (log2 ratio); higher = more soluble", "conditions": "cell cycle stage: G1/S"}, "[2]": {"system": "HeLa Kyoto", "assay": "melting temperature (median over replicates), in situ; higher = more thermally stable"}, "[3]": {"system": "HeLa Kyoto", "assay": "solubility change mitosis vs G1/S (difference of NP-40 vs SDS log2 ratios) (log2 ratio difference); higher = more soluble in mitosis"}, "[4]": {"system": "HeLa Kyoto", "assay": "thermal stability score vs G1/S (z-score of summed log2 fold changes over temperatures); higher = more thermally stable than in G1/S"}, "[5]": {"conditions": "cell cycle stage: early G1 (4.5 h after nocodazole release)"}},
  "data": [
    {"sequence": "MSDTRRRVKVYTLNEDRQWDDRGTGHVSSTYVEELKGMSLLVRAESDGSLLLESKINPNTAYQKQQDTLIVWSEAENYDLALSFQEKAGCDEIWEKICQVQGKDPSVEVTQDLIDESEEERFEEMPETSHLIDLPTCELNKLEEIADLVTSVLSSPIRREKLALALENEGYIKKLLQLFQACENLENTEGLHHLYEIIRGILFLNKATLFEVMFSDECIMDVVGCLEYDPALAQPKRHREFLTKTAKFKEVIPITDSELRQKIHQTYRVQYIQDIILPTPSVFEENFLSTLTSFIFFNKVEIVSMLQEDEKFLSEVFAQLTDEATDDDKRRELVNFFKEFCAFSQTLQPQNRDAFFKTLAKLGILPALEIVMGMDDLQVRSAATDIFSYLVEFSPSMVREFVMQEAQQSDDDILLINVVIEQMICDTDPELGGAVQLMGLLRTLIDPENMLATTNKTEKSEFLNFFYNHCMHVLTAPLLTNTSEDKCEKDFFLKHYRYSWSFICTPSHSHSHSTPSSSISQDNIVGSNKNNTICPDNYQTAQLLALILELLTFCVEHHTYHIKNYIMNKDLLRRVLVLMNSKHTFLALCALRFMRRIIGLKDEFYNRYITKGNLFEPVINALLDNGTRYNLLNSAVIELFEFIRVEDIKSLTAHIVENFYKALESIEYVQTFKGLKTKYEQEKDRQNQKLNSVPSILRSNRFRRDAKALEEDEEMWFNEDEEEEGKAVVAPVEKPKPEDDFPDNYEKFMETKKAKESEDKENLPKRTSPGGFKFTFSHSASAANGTNSKSVVAQIPPATSNGSSSKTTNLPTSVTATKGSLVGLVDYPDDEEEDEEEESSPRKRPRLGS [PPP4R3B]", "values": [
      {"measurement": "solubility in G1/S (log2)", "setting": "[1]", "value": 0.0425},
      {"measurement": "melting temperature", "setting": "[2]; cell cycle stage: G1/S", "value": 49.6, "unit": "°C"},
      {"measurement": "melting temperature", "setting": "[2]; cell cycle stage: mitosis", "value": 49.5, "unit": "°C"},
      {"measurement": "solubility change mitosis (log2)", "setting": "[3]", "value": -0.181},
      {"measurement": "thermal stability score", "setting": "[4]; [5]", "value": 1.17},
      {"measurement": "thermal stability score", "setting": "[4]; cell cycle stage: mitosis", "value": 1.76}
    ]},
    {"sequence": "MAAATADPGAGNPQPGDSSGGGAGGGLPSPGEQELSRRLQRLYPAVNQQETPLPRSWSPKDKYNYIGLSQGNLRVHYKGHGKNHKDAASVRATHPIPAACGIYYFEVKIVSKGRDGYMGIGLSAQGVNMNRLPGWDKHSYGYHGDDGHSFCSSGTGQPYGPTFTTGDVIGCCVNLINGTCFYTKNGHSLGIAFTDLPANLYPTVGLQTPGEIVDANFGQQPFLFDIEDYMREWRAKVQGTVHCFPISARLGEWQAVLQNMVSSYLVHHGYCATATAFARMTETPIQEEQASIKNRQKIQKLVLEGRVGEAIETTQRFYPGLLEHNPNLLFMLKCRQFVEMVNGTDSEVRSLSSRSPKSQDSYPGSPSLSPRHGPSSSHMHNTGADSPSCSNGVASTKSKQNHSKYPAPSSSSSSSSSSSSSSPSSVNYSESNSTDSTKSQHHSSTSNQETSDSEMEMEAEHYPNGVLGSMSTRIVNGAYKHEDLQTDESSMDDRHPRRQLCGGNQAATERIILFGRELQALSEQLGREYGKNLAHTEMLQDAFSLLAYSDPWSCPVGQQLDPIQREPVCAALNSAILESQNLPKQPPLMLALGQASECLRLMARAGLGSCSFARVDDYLH [RANBP10]", "values": [
      {"measurement": "solubility in G1/S (log2)", "setting": "[1]", "value": 0.151},
      {"measurement": "melting temperature", "setting": "[2]; cell cycle stage: G1/S", "value": 51.4, "unit": "°C"},
      {"measurement": "melting temperature", "setting": "[2]; cell cycle stage: mitosis", "value": 51.1, "unit": "°C"},
      {"measurement": "solubility change mitosis (log2)", "setting": "[3]", "value": -0.193},
      {"measurement": "thermal stability score", "setting": "[4]; [5]", "value": 0.428},
      {"measurement": "thermal stability score", "setting": "[4]; cell cycle stage: mitosis", "value": 0.506}
    ]},
    {"sequence": "MDAAEVEFLAEKELVTIIPNFSLDKIYLIGGDLGPFNPGLPVEVPLWLAINLKQRQKCRLLPPEWMDVEKLEKMRDHERKEETFTPMPSPYYMELTKLLLNHASDNIPKADEIRTLVKDMWDTRIAKLRVSADSFVRQQEAHAKLDNLTLMEINTSGTFLTQALNHMYKLRTNLQPLESTQSQDF [GINS2]", "values": [
      {"measurement": "solubility in G1/S (log2)", "setting": "[1]", "value": 0.24},
      {"measurement": "melting temperature", "setting": "[2]; cell cycle stage: G1/S", "value": 50.9, "unit": "°C"},
      {"measurement": "melting temperature", "setting": "[2]; cell cycle stage: mitosis", "value": 52.4, "unit": "°C"},
      {"measurement": "solubility change mitosis (log2)", "setting": "[3]", "value": 0.34},
      {"measurement": "thermal stability score", "setting": "[4]; [5]", "value": -1.69},
      {"measurement": "thermal stability score", "setting": "[4]; cell cycle stage: mitosis", "value": -2.97}
    ]},
    {"sequence": "MARMNRPAPVEVTYKNMRFLITHNPTNATLNKFIEELKKYGVTTIVRVCEATYDTTLVEKEGIHVLDWPFDDGAPPSNQIVDDWLSLVKIKFREEPGCCIAVHCVAGLGRAPVLVALALIEGGMKYEDAVQFIRQKRRGAFNSKQLLYLEKYRPKMRLRFKDSNGHRNNCCIQ [PTP4A1]", "values": [
      {"measurement": "solubility in G1/S (log2)", "setting": "[1]", "value": -0.131},
      {"measurement": "melting temperature", "setting": "[2]; cell cycle stage: G1/S", "value": 52.9, "unit": "°C"},
      {"measurement": "melting temperature", "setting": "[2]; cell cycle stage: mitosis", "value": 53.8, "unit": "°C"},
      {"measurement": "solubility change mitosis (log2)", "setting": "[3]", "value": -0.0406},
      {"measurement": "thermal stability score", "setting": "[4]; [5]", "value": 0.98},
      {"measurement": "thermal stability score", "setting": "[4]; cell cycle stage: mitosis", "value": -0.349}
    ]},
    {"sequence": "MALRGVSVRLLSRGPGLHVLRTWVSSAAQTEKGGRTQSQLAKSSRPEFDWQDPLVLEEQLTTDEILIRDTFRTYCQERLMPRILLANRNEVFHREIISEMGELGVLGPTIKGYGCAGVSSVAYGLLARELERVDSGYRSAMSVQSSLVMHPIYAYGSEEQRQKYLPQLAKGELLGCFGLTEPNSGSDPSSMETRAHYNSSNKSYTLNGTKTWITNSPMADLFVVWARCEDGCIRGFLLEKGMRGLSAPRIQGKFSLRASATGMIIMDGVEVPEENVLPGASSLGGPFGCLNNARYGIAWGVLGASEFCLHTARQYALDRMQFGVPLARNQLIQKKLADMLTEITLGLHACLQLGRLKDQDKAAPEMVSLLKRNNCGKALDIARQARDMLGGNGISDEYHVIRHAMNLEAVNTYEGTHDIHALILGRAITGIQAFTASK [GCDH]", "values": [
      {"measurement": "solubility in G1/S (log2)", "setting": "[1]", "value": 0.217},
      {"measurement": "melting temperature", "setting": "[2]; cell cycle stage: G1/S", "value": 54.2, "unit": "°C"},
      {"measurement": "melting temperature", "setting": "[2]; cell cycle stage: mitosis", "value": 54.7, "unit": "°C"},
      {"measurement": "solubility change mitosis (log2)", "setting": "[3]", "value": -0.103},
      {"measurement": "thermal stability score", "setting": "[4]; [5]", "value": -0.63},
      {"measurement": "thermal stability score", "setting": "[4]; cell cycle stage: mitosis", "value": 1.21}
    ]},
    {"sequence": "MNAEPERKFGVVVVGVGRAGSVRMRDLRNPHPSSAFLNLIGFVSRRELGSIDGVQQISLEDALSSQEVEVAYICSESSSHEDYIRQFLNAGKHVLVEYPMTLSLAAAQELWELAEQKGKVLHEEHVELLMEEFAFLKKEVVGKDLLKGSLLFTAGPLEEERFGFPAFSGISRLTWLVSLFGELSLVSATLEERKEDQYMKMTVCLETEKKSPLSWIEEKGPGLKRNRYLSFHFKSGSLENVPNVGVNKNIFLKDQNIFVQKLLGQFSEKELAAEKKRILHCLGLAEEIQKYCCSRK [BLVRA]", "values": [
      {"measurement": "solubility in G1/S (log2)", "setting": "[1]", "value": 0.108},
      {"measurement": "melting temperature", "setting": "[2]; cell cycle stage: G1/S", "value": 54.9, "unit": "°C"},
      {"measurement": "melting temperature", "setting": "[2]; cell cycle stage: mitosis", "value": 55, "unit": "°C"},
      {"measurement": "solubility change mitosis (log2)", "setting": "[3]", "value": -0.0957},
      {"measurement": "thermal stability score", "setting": "[4]; [5]", "value": -0.499},
      {"measurement": "thermal stability score", "setting": "[4]; cell cycle stage: mitosis", "value": -0.397}
    ]},
    {"sequence": "MGRLDGKVIILTAAAQGIGQAAALAFAREGAKVIATDINESKLQELEKYPGIQTRVLDVTKKKQIDQFANEVERLDVLFNVAGFVHHGTVLDCEEKDWDFSMNLNVRSMYLMIKAFLPKMLAQKSGNIINMSSVASSVKGVVNRCVYSTTKAAVIGLTKSVAADFIQQGIRCNCVCPGTVDTPSLQERIQARGNPEEARNDFLKRQKTGRFATAEEIAMLCVYLASDESAYVTGNPVIIDGGWSL [BDH2]", "values": [
      {"measurement": "solubility in G1/S (log2)", "setting": "[1]", "value": 0.0418},
      {"measurement": "melting temperature", "setting": "[2]; cell cycle stage: G1/S", "value": 51.4, "unit": "°C"},
      {"measurement": "melting temperature", "setting": "[2]; cell cycle stage: mitosis", "value": 51.3, "unit": "°C"},
      {"measurement": "solubility change mitosis (log2)", "setting": "[3]", "value": -0.101},
      {"measurement": "thermal stability score", "setting": "[4]; [5]", "value": 0.0249},
      {"measurement": "thermal stability score", "setting": "[4]; cell cycle stage: mitosis", "value": -0.29}
    ]},
    {"sequence": "MNNHVSSKPSTMKLKHTINPILLYFIHFLISLYTILTYIPFYFFSESRQEKSNRIKAKPVNSKPDSAYRSVNSLDGLASVLYPGCDTLDKVFTYAKNKFKNKRLLGTREVLNEEDEVQPNGKIFKKVILGQYNWLSYEDVFVRAFNFGNGLQMLGQKPKTNIAIFCETRAEWMIAAQACFMYNFQLVTLYATLGGPAIVHALNETEVTNIITSKELLQTKLKDIVSLVPRLRHIITVDGKPPTWSEFPKGIIVHTMAAVEALGAKASMENQPHSKPLPSDIAVIMYTSGSTGLPKGVMISHSNIIAGITGMAERIPELGEEDVYIGYLPLAHVLELSAELVCLSHGCRIGYSSPQTLADQSSKIKKGSKGDTSMLKPTLMAAVPEIMDRIYKNVMNKVSEMSSFQRNLFILAYNYKMEQISKGRNTPLCDSFVFRKVRSLLGGNIRLLLCGGAPLSATTQRFMNICFCCPVGQGYGLTESAGAGTISEVWDYNTGRVGAPLVCCEIKLKNWEEGGYFNTDKPHPRGEILIGGQSVTMGYYKNEAKTKADFFEDENGQRWLCTGDIGEFEPDGCLKIIDRKKDLVKLQAGEYVSLGKVEAALKNLPLVDNICAYANSYHSYVIGFVVPNQKELTELARKKGLKGTWEELCNSCEMENEVLKVLSEAAISASLEKFEIPVKIRLSPEPWTPETGLVTDAFKLKRKELKTHYQADIERMYGRK [ACSL3]", "values": [
      {"measurement": "solubility in G1/S (log2)", "setting": "[1]", "value": -0.101},
      {"measurement": "melting temperature", "setting": "[2]; cell cycle stage: G1/S", "value": 50.7, "unit": "°C"},
      {"measurement": "melting temperature", "setting": "[2]; cell cycle stage: mitosis", "value": 51.2, "unit": "°C"},
      {"measurement": "solubility change mitosis (log2)", "setting": "[3]", "value": -0.129},
      {"measurement": "thermal stability score", "setting": "[4]; [5]", "value": 1.86},
      {"measurement": "thermal stability score", "setting": "[4]; cell cycle stage: mitosis", "value": 3.88}
    ]}
  ]
}
